Test results taken from PMC9151340.

T1: MtrA (UniProt F2R521 1-225)
T1 sequence: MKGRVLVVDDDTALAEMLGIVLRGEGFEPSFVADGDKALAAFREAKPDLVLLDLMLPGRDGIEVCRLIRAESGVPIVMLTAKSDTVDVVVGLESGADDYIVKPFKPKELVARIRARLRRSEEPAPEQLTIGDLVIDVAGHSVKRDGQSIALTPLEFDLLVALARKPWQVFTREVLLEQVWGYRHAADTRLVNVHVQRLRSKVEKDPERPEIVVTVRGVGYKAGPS

T2: GlnR (UniProt F2RFQ1 1-276)
T2 sequence: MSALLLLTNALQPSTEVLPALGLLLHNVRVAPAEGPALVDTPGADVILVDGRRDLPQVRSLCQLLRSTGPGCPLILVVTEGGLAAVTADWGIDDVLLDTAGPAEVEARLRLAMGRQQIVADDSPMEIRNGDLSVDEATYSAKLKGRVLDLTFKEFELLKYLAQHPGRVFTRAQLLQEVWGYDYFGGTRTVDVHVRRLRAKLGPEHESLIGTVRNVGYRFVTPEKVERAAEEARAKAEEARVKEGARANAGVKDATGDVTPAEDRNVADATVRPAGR


What was measured:
MtrA = molecular target: T1, MtrA; assay: EMSA
GlnR = molecular target: T2, GlnR; assay: EMSA

Row | Binder | binding result (MtrA) | binding result (GlnR)
1 | nirB-WT (dsDNA) DNA 1: GGAGATCAGCGTTCCGTACGGGAAACAGTCGGGATGCCGCCGGGTAACACCGGCCGCGC DNA 2: GCGCGGCCGGTGTTACCCGGCGGCATCCCGACTGTTTCCCGTACGGAACGCTGATCTCC | binds | 
2 | mtrA WT (SVEN2756 WT) (dsDNA) DNA 1: TACGGTGCAGGCCGACCACGGGGGCCCACGGGGGTGACATCCATGTCTGGCATCAACAC DNA 2: GTGTTGATGCCAGACATGGATGTCACCCCCGTGGGCCCCCGTGGTCGGCCTGCACCGTA | binds | binds
3 | mtrA M1 (SVEN2756 M1) (dsDNA) DNA 1: TACGGTGCAGGCCGACCACGGGGGCCCACGGGGAGGCTATCCATGTCTGGCATCAACAC DNA 2: GTGTTGATGCCAGACATGGATAGCCTCCCCGTGGGCCCCCGTGGTCGGCCTGCACCGTA | no binding | 
4 | mtrA M2 (SVEN2756 M2) (dsDNA) DNA 1: TACGGTGCAGGCCGACCACGGGGGCCCACGGGGGTGACATCCATACTTGGCATCAACAC DNA 2: GTGTTGATGCCAAGTATGGATGTCACCCCCGTGGGCCCCCGTGGTCGGCCTGCACCGTA | no binding | 
5 | mtrA M3 (SVEN2756 M3) (dsDNA) DNA 1: TACGGTGCAGGCCGACCACGGGGGCCCACGGGGAGGCTATCCATACTTGGCATCAACAC DNA 2: GTGTTGATGCCAAGTATGGATAGCCTCCCCGTGGGCCCCCGTGGTCGGCCTGCACCGTA | no binding | 
6 | SVEN1860 WT (dsDNA) DNA 1: GTTTCATCAGTGTTTGACCACCGGGTCACGCCCTGGTAACACCAGTCTGTGAGCCTGGT DNA 2: ACCAGGCTCACAGACTGGTGTTACCAGGGCGTGACCCGGTGGTCAAACACTGATGAAAC | binds | 
